Biological target: T1, Human cytosolic aspartyl-tRNA synthetase (human), P14868
T1 chain: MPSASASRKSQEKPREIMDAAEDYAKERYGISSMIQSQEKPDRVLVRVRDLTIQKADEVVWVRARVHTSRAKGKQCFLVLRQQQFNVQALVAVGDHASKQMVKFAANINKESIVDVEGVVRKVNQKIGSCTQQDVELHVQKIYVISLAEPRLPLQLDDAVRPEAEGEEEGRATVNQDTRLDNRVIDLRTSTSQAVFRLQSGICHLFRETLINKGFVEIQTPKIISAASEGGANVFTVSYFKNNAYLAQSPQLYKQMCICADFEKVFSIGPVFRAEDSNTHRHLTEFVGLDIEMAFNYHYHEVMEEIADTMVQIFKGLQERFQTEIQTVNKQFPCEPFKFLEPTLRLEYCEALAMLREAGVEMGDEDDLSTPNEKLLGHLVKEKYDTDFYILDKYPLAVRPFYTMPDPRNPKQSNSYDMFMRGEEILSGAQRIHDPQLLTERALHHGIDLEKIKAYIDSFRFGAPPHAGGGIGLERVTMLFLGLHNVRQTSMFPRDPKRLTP
Experiment: crystal structure
Conditions: remark: other sources report otherwise

stoichiometry N: 2
B1: Human cytosolic aspartyl-tRNA synthetase, P14868 1-501 (enzyme)
chain: MPSASASRKSQEKPREIMDAAEDYAKERYGISSMIQSQEKPDRVLVRVRDLTIQKADEVVWVRARVHTSRAKGKQCFLVLRQQQFNVQALVAVGDHASKQMVKFAANINKESIVDVEGVVRKVNQKIGSCTQQDVELHVQKIYVISLAEPRLPLQLDDAVRPEAEGEEEGRATVNQDTRLDNRVIDLRTSTSQAVFRLQSGICHLFRETLINKGFVEIQTPKIISAASEGGANVFTVSYFKNNAYLAQSPQLYKQMCICADFEKVFSIGPVFRAEDSNTHRHLTEFVGLDIEMAFNYHYHEVMEEIADTMVQIFKGLQERFQTEIQTVNKQFPCEPFKFLEPTLRLEYCEALAMLREAGVEMGDEDDLSTPNEKLLGHLVKEKYDTDFYILDKYPLAVRPFYTMPDPRNPKQSNSYDMFMRGEEILSGAQRIHDPQLLTERALHHGIDLEKIKAYIDSFRFGAPPHAGGGIGLERVTMLFLGLHNVRQTSMFPRDPKRLTP
